Reference: patent US8383581B2, “Short-chain peptides as parathyroid hormone (PTH) receptor agonist” (Cadila Healthcare Limited, priority 2009, dated 2013)
Where no end group is shown, it is not given here. [ ]: non-standard residue; d: D form. Arg(NO2) = N=C(NCCC[C@H](N)C(=O)O)N[N+](=O)[O-]; αMePhe(2,6-F2) = C[C@](N)(Cc1c(F)cccc1F)C(=O)O; αMePhe(2-F) = C[C@](N)(Cc1ccccc1F)C(=O)O; hArg = N=C(N)NCCCC[C@H](N)C(=O)O; hCit = NC(=O)NCCCC[C@H](N)C(=O)O; αMeF = C[C@](N)(Cc1ccccc1)C(=O)O; Cit = NC(=O)NCCC[C@H](N)C(=O)O; Nle = CCCC[C@H](N)C(=O)O; Orn = NCCC[C@H](N)C(=O)O; Ac5c = NC1(C(=O)O)CCCC1; Ac3c = NC1(C(=O)O)CC1; Aib = CC(C)(N)C(=O)O

T1: rat PTH-1R (rat PTHR endogenously expressed on UMR-106 rat osteosarcoma cells) (rat, UniProt P25961 27-591)
T1 sequence (looked up): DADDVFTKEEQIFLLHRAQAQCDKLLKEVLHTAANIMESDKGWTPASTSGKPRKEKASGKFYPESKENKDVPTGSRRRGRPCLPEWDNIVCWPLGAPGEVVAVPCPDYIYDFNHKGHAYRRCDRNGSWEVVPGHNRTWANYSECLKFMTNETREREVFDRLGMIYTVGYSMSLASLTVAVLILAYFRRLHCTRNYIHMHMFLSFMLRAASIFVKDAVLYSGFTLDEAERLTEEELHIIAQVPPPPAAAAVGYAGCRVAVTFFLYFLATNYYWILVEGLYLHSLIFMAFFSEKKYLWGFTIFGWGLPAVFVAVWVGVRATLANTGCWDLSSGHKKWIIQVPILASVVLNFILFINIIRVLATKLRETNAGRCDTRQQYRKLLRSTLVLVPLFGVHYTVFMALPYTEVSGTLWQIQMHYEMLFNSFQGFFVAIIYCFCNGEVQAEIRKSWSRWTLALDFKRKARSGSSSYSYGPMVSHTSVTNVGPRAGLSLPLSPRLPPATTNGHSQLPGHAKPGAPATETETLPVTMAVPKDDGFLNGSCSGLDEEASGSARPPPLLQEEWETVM


The binders below were run against T1, rat PTH-1R (rat PTHR endogenously …) (assay: cell-based or functional assay).

Binder | cAMP released with respect to control, 1 nM peptide, UMR-106 cells | cAMP released with respect to control, 10 nM peptide, UMR-106 cells | cAMP released with respect to control, 100 nM peptide, UMR-106 cells
[Aib]V[Aib]EIQ[αMePhe(2-F)][Nle]HQ[Orn][Aib][Arg(NO2)][αMePhe(2-F)] [Seq. ID. 330] | 18 percent of control | 51 percent of control | 72 percent of control
[Ac5c]V[Aib]EIQ[αMePhe(2,6-F2)][Nle]HQ[Orn]A[Aib][αMePhe(2,6-F2)] [Seq. ID. 311] | 26 percent of control | 68 percent of control | 86 percent of control
[Ac5c]V[Aib]EIQ[αMePhe(2-F)][Nle]HQ[Orn][Aib][Cit][αMePhe(2,6-F2)] [Seq. ID. 292] | 39 percent of control | 104 percent of control | 120 percent of control
[Aib]V[Aib]EIQ[αMePhe(2,6-F2)][Nle]HQ[hArg]A[Arg(NO2)][αMePhe(2,6-F2)] [Seq. ID. 271] | 46 percent of control | 108 percent of control | 116 percent of control
[Ac3c]V[Aib]EIQL[Nle]HQ[hArg][Aib]K[αMeF] [Seq. ID. 15] | 28 percent of control | 78 percent of control | 99 percent of control
[Aib]V[Aib]EIQ[αMePhe(2,6-F2)][Nle]HQ[Orn]A[αMePhe(2,6-F2)][αMePhe(2,6-F2)] [Seq. ID. 325] | 38 percent of control | 98 percent of control | 116 percent of control
[Aib]V[Aib]EIQ[αMePhe(2-F)][Nle]HQ[Cit][Aib][Cit][αMePhe(2-F)] [Seq. ID. 346] | 21 percent of control | 51 percent of control | 69 percent of control
[Aib]V[Ac5c]EIQ[αMePhe(2,6-F2)][Nle]HQ[hArg][Aib][Arg(NO2)][αMePhe(2-F)] [Seq. ID. 256] | 28 percent of control | 71 percent of control | 87 percent of control

Other lines, results leading:

cAMP released with respect to control, 1 nM peptide, UMR-106 cells | cAMP released with respect to control, 10 nM peptide, UMR-106 cells | cAMP released with respect to control, 100 nM peptide, UMR-106 cells | Binder
56 percent of control | 101 percent of control | 126 percent of control | [Aib]V[Aib]EIQ[αMePhe(2,6-F2)][Nle]HQ[hCit]A[Arg(NO2)][αMePhe(2-F)] [Seq. ID. 461]
39 percent of control | 101 percent of control | 120 percent of control | [Aib]V[Aib]EIQ[αMePhe(2,6-F2)][Nle]HQ[hCit]A[Aib][αMePhe(2-F)] [Seq. ID. 429]
29 percent of control | 52 percent of control | 69 percent of control | [Aib]V[Aib]EIQ[αMePhe(2-F)][Nle]HQ[hCit][Aib][Cit][αMePhe(2,6-F2)] [Seq. ID. 418]
26 percent of control | 67 percent of control | 81 percent of control | [Ac5c]V[Aib]EIQ[αMePhe(2-F)][Nle]HQ[hCit][Aib][αMePhe(2,6-F2)][αMePhe(2-F)] [Seq. ID. 444]
38 percent of control | 79 percent of control | 119 percent of control | [Ac5c]V[Aib]EIQ[αMePhe(2,6-F2)][Nle]HQ[Cit]A[Cit][αMePhe(2-F)] [Seq. ID. 351]
32 percent of control | 71 percent of control | 99 percent of control | [Ac5c]V[Aib]EIQ[αMePhe(2-F)][Nle]HQ[Cit][Aib][Aib][αMePhe(2,6-F2)] [Seq. ID. 372]
38 percent of control | 102 percent of control | 117 percent of control | [Aib]V[Aib]EIQ[αMePhe(2,6-F2)][Nle]HQ[Cit]A[Arg(NO2)][αMePhe(2-F)] [Seq. ID. 397]
